This experiment has as its target triple-helical collagen peptide Ac-(GPO)2-GPO-GPQ-GLA-GQR-GIV-GLO-GQR-GER-(GPO)3G-NH2. The experiment can be described thus: ITC. Background: In ITC the heat of successive injections is recorded.

This note sets out measurements from doi:10.1101/2020.08.28.272104.

What is called Kd is a measure of binding affinity in units of concentration. Read a high Kd as weaker binding. Broadly, the stoichiometry N is the number of molecules, sites or subunits per partner or assembly.

The substance “MMP-1(E200A), active-site mutant of matrix metalloproteinase 1 (enzyme)” came in with a Kd of 250 to 500 nM and a stoichiometry N of 1.
